Test results reported in the nanobody polyreactivity screen of Harvey et al. (2022).

Experiment: yeast display, Sf9 membrane polyspecificity reagent, FACS + sequencing; frameworks hold sequencing errors
How it was run: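 Nanobodies from a synthetic yeast display library (Saccharomyces cerevisiae BJ5465), induced 36–48 hours with galactose, were stained 1 hour at 4 °C with 10% biotinylated, detergent-solubilized Sf9 membrane reagent, enriched on streptavidin microbeads, then FACS-sorted. Anti-HA (expression) and streptavidin (reagent binding) fluorescence set low and high (top ~1%) gates. Polyreactivity labels come from the gate of origin. Genes were colony-PCR amplified, MiSeq 2 × 250 sequenced and filtered by CDR length.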

Sequence	polyreactivity (PSR sort gate)
QVQLVESGGGLVQAGGSLRLSCAATGFTFSRNTMGWYRQAPGKERELGARITKRGGTTYYADSVKGRFTISRDNAKNTVYLQMNCLKPEDSAVYYCAAATQNPGSDYWGQGTQVTVSS	high polyreactivity
QVQLVESGGGLVQAGGSLRLSCAATGFTFVYYAMGWYRPAPGKERELVAAISSSGTRTYYADSVKGRFTISRDNAKNTVYLQMNSLKPEDTAVYFCAARNTYRTKVDYWGQGTQVTVSS	high polyreactivity
QVQLVESGGGLVQAGGSLRLSCAATGFTLTRNAMGWYRQAPGKERELVAAISWSGGTTYYADSVKGRFTISRDNAKNTFYLQMNSLKPEDTAVYYCAALRYKLPLGYWGQGTQVTVSS	high polyreactivity
QVQLVESGGGLVQAGGSLRLSCAATGIFVVYAMGWYREAPGKERELVAAIRSDASTNYADSVKGRFTISRDNAKNTVYLQMNILKPEDTAVYYCNTAQLVSDEFDYWGQGTQVTVSS	low polyreactivity
QVQLVESGGGLVQAGGSLRLSCAATGITFIVYVMGWYRQAPGKERELFATISYDDSTYADSVKGSFTISRDNAKNTVYLQMNSLKPEDTAVYYDYWGQGTQVTVSS	low polyreactivity
QVQLVESGGGLVQAGGSLRLSCAATGITFRYNAMGWYRLAPGKERELVAAITFSGGSTYYADSVKGRFTISRDNAKNTVYLQMNSLKPEDTAVYYCAKLGSTSSRGNYDYWGQGTQVTVSS	low polyreactivity
QVQLVESGGGLVQAGGSLRLSCAATGLTLKENVMGWYRQAPGKERELVAAISTGASTYYADSVKGRFTISRDNAKNTVYLQMNSLKPEDTAVYYCAKRVTRCYGYWGQGTQVTVSS	high polyreactivity
QVQLVESGGGLVQAGGSLRLSCAATGLTVRYYTMGWYRQAPGKERELVASITIRGGSTYYADSVKGRFTISRDNAKNTVYLQMNSLKAEDTAVYYCNTRYGYSFGYWGQGTQVTVSS	high polyreactivity
QVQLVESGGGLVQAGGSLRLSCAATGNTFTYNTMGWYRQAPGKERELVARITFSAGRTYYADSVKGRFTISRDNAKNTVYLQMNSLKPEDTAVYYCAAYSFGLRSYYLYDYWGQGTEVTVSS	high polyreactivity
QVQLVESGGGLVQAGGSLRLSCAATGRIFGQYAMGWYRQAPGKESDFVAVISKRGGRTYYADSVMGRFTISRDNAKNTVYLQMNSLKPEDTAVYYCAAEYYPHDGAQYEYWGQGTQVTVSS	high polyreactivity
QVQLVESGGGLVQAGGSLRLSCAATGRIFHGYAMGWYRQAPGKERELVAAIDEDGGSTYYADSVKGRFTISRDNAKNTVYLQMNSLKPVDTAVYYCNADCSVRLDGFDYWGQGTQVTVSS	low polyreactivity
QVQLVESGGGLVQAGGSLRLSCAATGRIFIDNTMGWYRQAPGKERELVAAISWSGGSTYYADSVKGRFTISRDNAKNTVYLQMNCLKPEDTAVYYCAARRLRSNGRTWAVTYDYWGQGTQVTVSS	low polyreactivity
QVQLVESGGGLVQAGGSLRLSCAATGRIFSFYAMGWYRQAPGKERELVAAITWGDGSTYYAVSVKGRFTISRDNAKNTVYLQMNSLKPEDTAVYYCNKTYIDTTVYDVIMDYWGQGTQVTVSS	low polyreactivity
QVQLVESGGGLVQAGGSLRLSCAATGRISVFYTMRWYRQPPGKATELVAVIRTSVGRTNYADYVKGRFTISRVNAKNTVYLQMNSLKPEDTAVYYCAAGVVSYGYNYYYWGQGTQVTVSS	low polyreactivity
QVQLVESGGGLVQAGGSLRLSCAATGRTFGYSPMGSYRPAPGKERELVAAISRRGGSTYYADSVKGRFIISRDNAKNTVYLQMNSLKPEDTAVYYCAKGHQWGLKGGYDYWGQGTQVTVSS	high polyreactivity
QVQLVESGGGLVQAGGSLRLSCAATGRTFSGNAMGWYRQAPAKERELVAAISRSGGTTYYADSVKGRFTISRDNAKNPVYLQMNSLKPEDTAVYYCNRGWANWLGPDDYWGQGNQVTVSS	high polyreactivity
QVQLVESGGGLVQAGGSLRLSCAATGSIFGIYTMGWDRQAPGKERELVAAIRRSGSTNYADSVKGRFTISRDNEKNTVYLQMNSLKPEDSAVYYCAADALSDEYDYWGQGTQVTVSS	low polyreactivity
QVQLVESGGGLVQAGGSLRLSCAATGSIFGKYAMGWSRQAPGKERELVAVITWSGGSTYYADSVKGRFTISRDNAKNTVYLQMNSLKPEDTAVYYCNAANTGSQDYQSIGYNFNYWGQGTQVTVSS	low polyreactivity
QVQLVESGGGLVQAGGSLRLSCAATGSIFSYYDMAWYRQAPGNERELVAGISRGGSTNYADSVKGRFTISRDNGKNTVYLQMNSLKEEDTAVYYCNADQSSRTYPFRRSRRSWLYGYWGQGTQVTVSS	low polyreactivity
QVQLVESGGGLVQAGGSLRLSCAATGSIFWVNGMGWYRQAPGKERELVAAITWSGGSTYYADSVKGRFTISRDNAKNTVYLQMNSLKPEDTAVYYCADYGQYYLWDGYGYWGQGTQVTVSS	low polyreactivity
QVQLVESGGGLVQAGGSLRLSCAATGSIFYHYAMGWYRQAPGKERELVAAISGSGGSTYYADSVKGRFTISRDNAKNTVYLQMNSLKPEDTAVYYCAADTSRYHYSRYFFDSDYWGQGTQVTVSS	low polyreactivity
QVQLVESGGGLVQAGGSLRLSCAATGSIINRYVMGWYRQAPGKEREFVAAIRNTGGSTYYADSVKGRFTISRDNAKNTVYLQMNSLKPEDPAVYYCAAVYRSAYDGLDHGYRRHDYWGQGTQVTVSS	high polyreactivity

Sequence	polyreactivity (PSR sort gate)
QVQLVESGGGLVQAGGSLRLSCAATGSIISVNTMGWYRQAPGKERELVATIRTGDSTNYADSVKGRFTISRDNAKYTVYLQMNSLKPEDTAVYYCAAEWSSLNFDYWGQGTQVTVSS	low polyreactivity
QVQLVESGGGLVQAGGSLRLSCAATGSIVYSNTMGWYRQSPGKERELVAAISTSDTSTYYADSVKGRFTISRDNGKNTVYLQMNSLKPQDTAVYYCNAVCSIVLYGYWGQGTQVTVSS	low polyreactivity
QVQLVESGGGLVQAGGSLRLSCAATGSTFARYAMGWSRQAPGKERELVAAISRRGGSTYYADSVTGRFTLSRDNAKNTVYLQMNSLNQEDTAVDSCAARYGIISSFEYDYWGQGTQVTVSS	high polyreactivity
QVQLVESGGGLVQAGGSLRLSCAATGSTFATNAMGWYKQAPGKEREFVAAISRRGGRTYYADSVKGRFTISRDNAKNTVYLKMNSVKPEDTAVYYCNTLRVGWGQGTQVTVSS	high polyreactivity
QVQLVESGGGLVQAGGSLRLSCAATGSTFGGNAMGWYRQAPGKERELVAAISSSGGSTYYADSVKGRFTISRDNAKNTVYLQRNRLKPEDTAVYYCAALYHWTYDYWGQGTQVTVSS	low polyreactivity
QVQLVESGGGLVQAGGSLRLSCAATGSTFYHYAMGWYRQAPGKEREFVAAISTSGGRTYYADSVKGRFTISRDNAKNTVYLQMNSLKPEDTAVYYCAARPGSWYPSVPSYNYWGQGTQVTVSS	low polyreactivity
QVQLVESGGGLVQAGGSLRLSCAATGSTSVHNAMGWYRQAPGKERELVDAITSDGSTNYADSVKGRFTISRDNAKNTVYLQMNSLKPEDTAVYFCGAAYWTRLRRMDYWGQGTQVTVSS	low polyreactivity
QVQLVESGGGLVQAGGSLRLSCAATGSTYPRNDRGWYRQAPGKERELVAAISRGGSTNYADSVKGRFTISRDNAKNTVYLQMNSLKPEDTAVYFCAAQIFESAYGMDYWGQGTQVTVSS	low polyreactivity
QVQLVESGGGLVQAGGSLRLSCAATGTFIIYAMGRYRQAPGKERELVATISTGGSTNYADSVKGRFTISRDNAKNTVYLQMNSLKPEDTAVYYCAAEWLYPHDGGYPRPMDYCGQGTQVTVSS	low polyreactivity
QVQLVESGGGLVQAGGSLRLSCAATGYIFSHYAMGWYRQAPGKERELVAAITRSGGSTYYADSVKGRFTISRDNAKNTVYLQMNSLKPEVTAVYYCAASSLFYYWGQGTQVTVSS	high polyreactivity
QVQLVESGGGLVQAGGSLRLSCAATGYTFFRNTMGWYRQAPGKESELVAVITKSGGSTYYADSVKWRFTISRDNAKNTVYLHMNSLIPEDTAVYYCNAVTALRNTEYNYWGQGTQVTVSS	high polyreactivity
QVQLVESGGGLVQAGGSLRLSCAAYASTLANYALGWYRQSPGKERELVAAINSGGSTYYADSVKGRFTISRDNAKNTVYLQMNSLKPEDTAVYYCAARYASPRYKSKMDYWGQGTQVTVSS	high polyreactivity
QVQLVESGGGLVQAGGSLRLSCAAYGFIFIGYTMGWYRQAPGKERELVATISLGDDSTYYADSVKGRFTISRDNAKNTVYLQMNSLKPEDTAVYYCAADQIDGTTSAYDYWGQGTQVTVSS	low polyreactivity
QVQLVESGGGLVQAGGSLRLSCAAYGFIFRNYAMGWDRQAPGKERELVAAITWRGGSTYYADSVKGRFTISRDNAKNTVYLQMNSLKPEDTAVYYCAARGYRSREDYWGQGTQVTVSS	high polyreactivity
QVQLVESGGGLVQAGGSLRLSCAAYGFIFVRYAMGWYRQAPGKERELVAAISWRGGSTYYADSVKGRFTISRDNAKNTVYLQMNSLKPEDNAVYYCAGAVYQRARYYWGQGTQVNVSS	high polyreactivity
QVQLVESGGGLVQAGGSLRLSCAAYGFIYRYYAMGWNRQAPGKERELVPGISVSGGGTYYADSVKGRFTISRDNAKNTVNLQMNSLKPEDTAVYYCAAERTFLYWAYDYWGQGTQVNVSS	high polyreactivity
QVQLVESGGGLVQAGGSLRLSCAAYGHFFAIYAMGWYSQAPGKEREFVAAITFTTRTYYADSVKGRFTISRDNAKNTVYLQMNSLKPEDTAVYYCAAGGYGEEYDYWGQGTQVTVSS	low polyreactivity
QVQLVESGGGLVQAGGSLRLSCAAYGIIFYYYAMGWYRQAPGKERELVAAITGTGSRTYYADSVKGRFTISRDNAKNTVYLQMNSLKPEDTAVYYCNARSFATGSEVPARGYWGQGTQVTVSS	high polyreactivity
QVQLVESGGGLVQAGGSLRLSCAAYGINFYKYAMVWSRQAPGQERELVASITKSAGSTNYADSDKGRFTISRDNAMNTVYLQMNSLKPEDTAVYYCAARRFTFNLFDYWGQGTQVTVSS	high polyreactivity
QVQLVESGGGLVQAGGSLRLSCAAYGITLYKYAMGWYRQAPGKERELVASISRSGGSTYYADSVKGRFTISRDNAKNTVYLEMNSLKPEDTAVYYCAKAVWWSRPAQKSYLYYYWGHGTQVTVSS	high polyreactivity
QVQLVESGGGLVQAGGSLRLSCAAYGNIFDGNAMGWYRQAPGKERELVAAITGRGGGTYYADSVKGRFTISRDNAKNTVYLLMNSLKPEDTAVYYCNKYYYRGGMDYWGQGTQVNVSS	high polyreactivity
